Biological target: N-terminal eGFP fused human CHFR mutant lacking forkhead-associated domain (human) (UniProt Q96EP1)
Experiment: co-IP; anti-GFP agarose beads (GFP-Trap) pull-down from lysates of HMEC transfected with eGFP-CHFR constructs, 48 h after transfection; 150 ug lysate protein, 2 h at 4 C; immunoblot for endogenous VE-cadherin; ratio of VE-cadherin to GFP-CHFR quantified

UniProt Q96EP1, sequence (Q96EP1 whole entry, change not shown, the tested form may be a part): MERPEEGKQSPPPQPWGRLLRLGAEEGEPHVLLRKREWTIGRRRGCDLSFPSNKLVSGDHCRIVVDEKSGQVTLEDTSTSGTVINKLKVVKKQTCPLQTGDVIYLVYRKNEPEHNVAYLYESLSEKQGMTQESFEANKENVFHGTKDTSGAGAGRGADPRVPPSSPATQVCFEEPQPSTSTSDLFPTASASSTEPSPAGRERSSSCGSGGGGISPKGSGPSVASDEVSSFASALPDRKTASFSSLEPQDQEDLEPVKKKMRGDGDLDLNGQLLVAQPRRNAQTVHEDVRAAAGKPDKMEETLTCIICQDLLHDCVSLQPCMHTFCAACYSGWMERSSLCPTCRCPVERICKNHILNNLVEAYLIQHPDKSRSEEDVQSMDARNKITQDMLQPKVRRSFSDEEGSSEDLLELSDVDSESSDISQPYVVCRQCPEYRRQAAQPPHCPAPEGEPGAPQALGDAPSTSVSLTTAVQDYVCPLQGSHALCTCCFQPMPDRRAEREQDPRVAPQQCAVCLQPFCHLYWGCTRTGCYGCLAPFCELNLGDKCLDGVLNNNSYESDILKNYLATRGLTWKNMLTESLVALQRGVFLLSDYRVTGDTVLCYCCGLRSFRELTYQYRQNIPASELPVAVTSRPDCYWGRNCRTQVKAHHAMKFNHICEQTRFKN

B1: VE-cadherin, endogenous in HMEC (natural protein)
chain: DWIWNQMHIDEEKNTSLPHHVGKIKSSVSRKNAKYLLKGEYVGKVFRVDAETGDVFAIERLDRENISEYHLTAVIVDKDTGENLETPSSFTIKVHDVNDNWPVFTHRLFNASVPESSAVGTSVISVTAVDADDPTVGDHASVMYQILKGKEYFAIDNSGRIITITKSLDREKQARYEIVVEARDAQGLRGDSGTATVLVTLQDINDNFPFFTQTKYTFVVPEDTRVGTSVGSLFVEDPDEPQNRMTKYSILRGDYQDAFTIETNPAHNEGIIKPMKPLDYEYIQQYSFIVEATDPTIDLRYMSPPAGNRAQVIINITDVDEPPIFQQPFYHFQLKENQKKPLIGTVLAMDPDAARHSIGYSIRRTSDKGQFFRVTKKGDIYNEKELDREVYPWYNLTVEAKELDSTGTPTGKESIVQVHIEVLDENDNAPEFAKPYQPKVCENAVHGQLVLQISAIDKDITPRNVKFKFILNTENNFTLTDNHDNTANITVKYGQFDREHTKVHFLPVVISDNGMPSRTGTSTLTVAVCKCNEQGEFTFCEDMAAQVGVSIQAVVAILLCILTITVITLLIFLRRRLRKQARAHGKSVPEIHEQLVTYDEEGGGEMDTTSYDVSVLNSVRRGGAKPPRPALDARPSLYAQVQKPPRHAPGAHGGPGEMAAMIEVKKDEADHDGDGPPYDTLHIYGYEGSESIAESLSSLGTDSSDSDVDYDFLNDWGPRFKMLAELYGSDPREELLY
Work on B1 yielded a fold binding against WT-CHFR of 2 fold.
